From paper PMC2805716, “Critical Structural and Functional Roles for the N-Terminal Insertion Sequence in Surfactant Protein B Analogs” (PLoS ONE, 2010)
Values belong to the molecule of their own block, whether it stands above or below them. Where a SMILES comes first, the peptide text is derived from it. Bridges are numbered along the chain shown (N, C = ends). Where no end group is shown, it is not given here.

How the values were obtained:
[1] = target: T1, chip-linked Cys-S-MB (Homo sapiens, UniProt P07988, DEL226-262); assay: SPR binding to chip-linked Cys-S-MB; conditions: HBS-EP buffer pH 7.4 with 0.005% P20, 37°C, 50 µl/min, 1 µg peptide/ml; mean
T1 construct: made in house; host or cells: chemical solid-phase peptide synthesis (Fmoc), no expression host
T1 sequence (P07988 with tags, fused parts or gaps DEL226-262): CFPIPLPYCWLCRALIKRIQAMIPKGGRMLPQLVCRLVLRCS
Description: (§1) The respective binding affinities of S-MB and MB, both to themselves (self-association) and to each other (cross-association), were measured with surface plasmon resonance (SPR) spectroscopy using a Biacore 3000 system (Biacore, Uppsala, Sweden), [59]. S-MB and MB, each with a cysteine added to its N-terminus, were chemically linked to a thiol Biacore chip (BR-1000-14, research grade, containing a carboxymethylated dextran matrix covalently attached to a gold film). Solutions of peptide in HBS-EP buffer (i.e., 10 mM Hepes, pH 7.4, 150 mM NaCl, 3 mM EDTA, 0.005% surfactant P20) were then flowed over the chip-linked peptide at a flow rate of 50 µl/min to determine binding affinity at 37°C. Assessment of peptide binding was determined with sensorgrams, in which the arbitrary response units (RU) were plotted as a function of time. Binding associated with control medium containing no peptide was subtracted from final affinity curves, and mean “on” and “off” rate constants (kon and koff) and the dissociation equilibrium constant (KD = koff/kon) were calculated using BIAevaluation Software Version 4.1 based on curve fitting form measurements at 1 µg peptide/ml buffer concentration. The sensor surface was regenerated using 10 mM HCl between sample injections.

[2] = target: T2, chip-linked Cys-MB (Homo sapiens, UniProt P07988, DEL226-262); assay: SPR binding to chip-linked Cys-MB; conditions: HBS-EP buffer pH 7.4 with 0.005% P20, 37°C, 1 µg peptide/ml, mean; for koff / kon: 50 µl/min
T2 construct: made in house; host or cells: chemical solid-phase peptide synthesis (Fmoc), no expression host
Description: as §1

[3] = FTIR, methanol; ref [30]; cited from earlier work
Text: Although the “10 nsec” MD simulation of dimer S-MB provides a reasonable framework to account for our SDS-PAGE and SPR results (Figs. 8 and 10), it is worthwhile to consider other structural models by which the N-terminal insertion sequence may promote the self-association of S-MB. One possible alternative is that oligomeric S-MB may be due to the N-terminal sequence (residues 1-7) forming β-sheet. The N-terminal SP-B(1–9) (Fig. 2) was earlier proposed to act as a ‘biochemical Velcro®,’ facilitating in vivo either the aggregation of SP-B or the interactions of SP-B with SP-C [50]. In support ...

[4] = test system: ventilated rats with ARDS induced by in vivo lavage; assay: Ventilated lung-lavaged rat model of ARDS; design: species or system Sprague-Dawley rats; conditions: n = 8–10; for relative order of pulmonary activity (oxygenation and compliance): 90 min after intratracheal 100 mg/kg surfactant; for arterial oxygenation (PaO2) / dynamic lung compliance: synthetic lipids +1.5 mol% peptide, 90 min; for arterial oxygenation (PaO2): 100% oxygen
Description: Animal experiments were performed under established protocols approved by the Animal Care and Use Committee at the Los Angeles Biomedical Research Institute at Harbor-UCLA Medical Center. Anesthesia, surgery, lavage, ventilation, and monitoring methods used have been detailed previously [35]–[37]. Briefly, adult male Sprague-Dawley rats weighing 200–225 g were anesthetized with 35 mg/kg pentobarbital sodium and 80 mg/kg ketamine by intraperitoneal injection, intubated, and ventilated with a rodent ventilator (Harvard Apparatus, South Natick, MA) with 100% oxygen, a tidal volume of 7.5 ml/kg and a rate of 60/min. An arterial line was placed in the abdominal aorta for measurements of arterial blood pressure and blood gases. Rats were paralyzed with 1 mg/kg pancuronium bromide intravenously. Only animals with PaO2 values >400 torr while ventilated with 100% oxygen and with normal blood pressure values were included in the experiments. Airway pressures were measured with a pressure transducer (Gould Inc., Cleveland, OH) and tidal volume with a pneumotachometer (Validyne, Northridge, CA) connected to a multi-channel recorder (Gould Inc., Cleveland, OH). The lungs were lavaged 8–12 times with 8 ml of pre-warmed 0.9% NaCl. After the PaO2 in 100% oxygen had reached stable values of <100 torr, the rats were treated with 100 mg/kg of experimental surfactant by intratracheal instillation. Arterial blood gases, tidal volume and airway pressures were determined at 15 min intervals throughout each experiment. Dynamic lung compliance was calculated by dividing tidal volume/kg body weight by changes in airway pressure (peak inspiratory pressure minus positive end-expiratory pressure) (mL/kg/cmH2O). Ninety minutes after surfactant instillation, rats were killed with 200 mg/kg pentobarbital sodium intravenously. Each treatment group consisted of 8–10 animals.

[5] = Captive bubble surfactometry, dynamic surface activity; type: physicochemical; conditions: for minimum surface tension: 1.5 mol% in synthetic lipids 16:10:6:1:2 (weight) DPPC:POPC:POPG:POPE:cholesterol, 20 cycles/min, ten cycles, 37°C, n = 4
Description: The captive bubble surfactometer used here was a fully-computerized version of that described by Schurch and co-workers [79]–[81]. In brief, the sample chamber of the apparatus was cut from high-quality cylindrical glass tubing (10 mm inner diameter). A Teflon® piston with a tight O-ring seal was fitted into the glass tubing from the top end, with a plug of buffered 1% agarose gel inserted between the piston and the surfactant solution that was added through a stainless steel port from the other end of the sample chamber. The chamber and piston were vertically mounted in a steel rack, the height of which was regulated by a precision micrometer gear. In a typical experiment, the chamber was filled with a buffered salt solution (140 mM NaCl, 10 mM HEPES, 2.5 mM CaCl2, pH 6.9) containing 10% sucrose. One µl of surfactant solution containing 35 µg of lipid was added to this subphase, which was stirred by a small magnetic bar at 37°C. The subphase volume in the sample chamber averaged 0.7 ml (0.5–1 ml), resulting in a final average surfactant lipid concentration of 50 µg/ml (35–75 µg/ml). An air bubble approximately 7 mm in diameter (∼200 µl in volume) was then introduced within the sample chamber and subjected to cyclic volume (surface area) changes by systematically varying the height of the steel rack following a 5 min pause to allow adsorption to the air-water interface. The ionic composition of the buffered agarose plug minimized bubble adhesion to the plug during cycling, so that an uninterrupted bubble interface was maintained. […] Bubble images were continuously monitored during compression-decompression using a digital video camera (PULNIX Model TM-200, Pulmix America Inc, Sunnyvale, CA) and a professional video recorder (Panasonic AG-1980P, Secaucus, NJ) coupled to a computer with an Intel Pentium 4 processor. […] Bubble areas and volumes were calculated by an original algorithm relating bubble height and diameter to areas of revolution, and bubble surface tension was determined by the method of Malcolm and Elliot. […]

[6] = lipid monolayers containing palmitic acid; ref [31], [32]; cited from earlier work
Text: Previous structural and functional studies with synthetic peptides representing the N- and C-terminal regions of SP-B further support the hypothesis that these charged amphipathic helices participate in surfactant activities. […] The cationic N-terminus of SP-B may here interact with anionic lipids to remove the driving force for lipid squeeze-out from the surface film, [32]. In additional studies, SP-B(1–25 ...

[7] = target: T3, Cys-MB (Mini-B with a cysteine added to its N-terminus, chip-linked) (human); assay: SPR; Biacore 3000; Cys-MB or Cys-S-MB linked to a thiol chip; MB or S-MB at 1 µg peptide/ml in HBS-EP (10 mM Hepes, pH 7.4, 150 mM NaCl, 3 mM EDTA, 0.005% surfactant P20) flowed over at 50 µl/min, 37°C; constants from curve fitting at the one concentration; conditions: both partners purified
T3 construct: cysteine added to the N-terminus to link the peptide to the thiol Biacore chip; surfactant protein B (SP-B), human, residues 8-25; numbers count on: the mature protein (79 residues); surfactant protein B (SP-B), human, residues 63-78; Immobilised on the SPR chip; also called chipped MB; N-terminal Cys-MB
T3 chain: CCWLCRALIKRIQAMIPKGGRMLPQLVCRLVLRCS

[8] = target: T4, Cys-S-MB (Super Mini-B with a cysteine added to its N-terminus, chip-linked) (human); assay: as above; conditions: both partners purified
T4 construct: cysteine added to the N-terminus to link the peptide to the thiol Biacore chip; surfactant protein B (SP-B), human, residues 1-25; numbers count on: the mature protein (79 residues); surfactant protein B (SP-B), human, residues 63-78; Immobilised on the SPR chip; also called chipped S-MB; N-terminal Cys-S-MB
T4 chain: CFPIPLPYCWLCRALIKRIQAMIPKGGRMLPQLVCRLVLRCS

[9] = intratracheal 100 mg/kg surfactant

koff [1]: 0.00806 s⁻¹ | kon [1]: 200000 M⁻¹ s⁻¹ | koff [2]: 0.0168 s⁻¹ | kon [2]: 91900 M⁻¹ s⁻¹ | Kd ([2]; KD = koff/kon): 183 nM
Molecule: CC[C@H](C)[C@@H]1NC(=O)[C@H](CCCNC(=N)N)NC(=O)[C@H](CCCCN)NC(=O)[C@H]([C@@H](C)CC)NC(=O)[C@H](CC(C)C)NC(=O)[C@H](C)NC(=O)[C@H](CCCNC(=N)N)NC(=O)[C@@H]2CSSC[C@H](NC(=O)[C@H](C(C)C)NC(=O)[C@H](CC(C)C)NC(=O)[C@H](CCC(N)=O)NC(=O)[C@@H]3CCCN3C(=O)[C@H](CC(C)C)NC(=O)[C@H](CCSC)NC(=O)[C@H](CCCNC(=N)N)NC(=O)CNC(=O)CNC(=O)[C@H](CCCCN)NC(=O)[C@@H]3CCCN3C(=O)[C@H]([C@@H](C)CC)NC(=O)[C@H](CCSC)NC(=O)[C@H](C)NC(=O)[C@H](CCC(N)=O)NC1=O)C(=O)N[C@@H](CCCNC(=N)N)C(=O)N[C@@H](CC(C)C)C(=O)N[C@@H](C(C)C)C(=O)N[C@@H](CC(C)C)C(=O)N[C@@H](CCCNC(=N)N)C(=O)N[C@H](C(=O)N[C@@H](CO)C(=O)O)CSSC[C@H](N)C(=O)N[C@@H](Cc1c[nH]c3ccccc13)C(=O)N[C@@H](CC(C)C)C(=O)N2 [MB] (H-CWLCRALIKRIQAMIPKGGRMLPQLVCRLVLRCS-OH; disulfide 1-33, 4-27)

koff [1]: 0.000901 s⁻¹ | kon [1]: 44700 M⁻¹ s⁻¹ | koff [2]: 0.00736 s⁻¹ | kon [2]: 141000 M⁻¹ s⁻¹
Molecule: FPIPLPYCWLCRALIKRIQAMIPKGGRMLPQLVCRLVLRCS (disulfide 8-40, 11-34) [S-MB]

Molecule: SP-B(1–9): N-terminal SP-B(1–9) peptide (FPIPLPYCW; Pulmonary surfactant-associated protein B; UniProt P07988 201-209, looked up, fragment)
β-sheet content [3]: 26.3% | β-sheet content in residues [3]: ~2.4 residues

Molecule: H-FPIPLPYC-NH2 [SP-B(1–8)]
relative order of pulmonary activity (oxygenation and compliance) [4]: S-MB > MB > pig SP-B > SP-B(1–8)> lipids alone | arterial oxygenation (PaO2) [4, 9]: minimal effects | dynamic lung compliance [4, 9]: minimal effects | minimum surface tension [5]: 20 mN/m | statistical comparison of minimum surface tension ([5]; after ten cycles, versus S-MB, MB and pig SP-B surfactants): significantly higher

B1: SP-B: 79 amino acids, lipid-associating lung protein, covalently linked homodimer (protein, UniProt P07988 201-279, looked up)
Pulmonary …: FPIPLPYCWLCRALIKRIQAMIPKGALAVAVAQVCRVVPLVAGGICQCLAERYSVILLDTLLGRMLPQLVCRLVLRCSM
modifications: Pulmonary surfactant-associated protein B
notes: 79 amino acids, lipid-associating lung protein, covalently linked homodimer
collapse pressure of lipid monolayers [6]: increase the collapse pressure

B2: pig SP-B: native pig SP-B, positive control (protein, UniProt P15782 1-79, looked up)
Pulmonary …: FPIPLPFCWLCRTLIKRIQAVVPKGVLLKAVAQVCHVVPLPVGGICQCLAERYIVICLNMLLDRTLPQLVCGLVLRCSS
modifications: Pulmonary surfactant-associated protein B
notes: native pig SP-B, positive control
relative order of pulmonary activity (oxygenation and compliance) [4]: S-MB > MB > pig SP-B > SP-B(1–8)> lipids alone | arterial oxygenation (PaO2) [4, 9]: increased quickly | dynamic lung compliance [4, 9]: increased quickly | oxygenation and compliance versus SP-B1-8 and lipids only surfactants [4, 9]: consistently surpassed the performance of SP-B1-8 and lipids only surfactants (p<0.001) | significance of differences in oxygenation and compliance between S-MB, MB and pig SP-B [4, 9]: statistically significant (p<0.05) starting at 30 min after surfactant instillation | minimum surface tension [5]: < 3 mN/m

Kd [7]: 183 nM | koff [7]: 0.0168 s⁻¹ | kon [7]: 91900 M⁻¹ s⁻¹ | Kd [8]: 40.4 nM | koff [8]: 0.00806 s⁻¹ | kon [8]: 200000 M⁻¹ s⁻¹
B3: Mini-B (peptide)
chain: CWLCRALIKRIQAMIPKGGRMLPQLVCRLVLRCS
notes: surfactant protein B (SP-B), human, residues 8-25 (N-terminal helix region); numbers count on: the mature protein (79 residues); surfactant protein B (SP-B), human, residues 63-78 (C-terminal helix region); Oxidised form with intramolecular disulfides Cys-8 to Cys-40 and Cys-11 to Cys-34 (S-MB numbering); also called MB; source: synthetic peptide (Fmoc solid phase, HPLC-purified, air-oxidised)
